Assay results published in patent publication US20160251421A1 (AstraZeneca / MedImmune, published 2016).

T1: biotinylated recombinant human Angiopoietin-2 (R&D Systems, Inc. Cat. No. BT623) (human, UniProt O15123 19-496, limits assumed, biotinylated (sites not given))
T1 construct: Bought reagent; also called Ang-2; Ang2
T1 sequence (looked up): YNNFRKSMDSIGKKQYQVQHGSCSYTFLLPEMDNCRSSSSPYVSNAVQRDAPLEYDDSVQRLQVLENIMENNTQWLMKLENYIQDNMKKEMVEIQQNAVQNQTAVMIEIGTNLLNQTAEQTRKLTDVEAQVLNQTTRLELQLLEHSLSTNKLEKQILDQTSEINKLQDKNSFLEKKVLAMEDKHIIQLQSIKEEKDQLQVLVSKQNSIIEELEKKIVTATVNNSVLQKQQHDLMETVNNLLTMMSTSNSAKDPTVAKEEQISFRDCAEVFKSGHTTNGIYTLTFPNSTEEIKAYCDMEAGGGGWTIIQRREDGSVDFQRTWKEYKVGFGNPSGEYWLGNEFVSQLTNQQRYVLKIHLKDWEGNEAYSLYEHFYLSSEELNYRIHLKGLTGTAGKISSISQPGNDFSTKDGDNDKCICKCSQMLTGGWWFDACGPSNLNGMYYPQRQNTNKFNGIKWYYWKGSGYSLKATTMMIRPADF


Target: T1, biotinylated recombinant human …
Experiment: competitive binding ELISA: biotinylated Angiopoietin-2 on plate-coated Tie-2/Fc, purified mAb

Efficacy (ratio of bound Angiopoietin-2 with mAb (30 µg/ml) versus without mAb) [ratio]	Binder
0.395	anti-Angiopoietin-2 monoclonal antibody 3.19.3 (antibody, V domains shown, Fully human IgG kappa from XenoMouse hybridoma (strains XMG2 and XMG4); IgG purified from hybridoma supernatant) VH: QVQLVESGGGVVQPGRSLRLSCAASGFTFTNYGMHWGRQAPGKGLEWVAVISHDGNNKYYVDSVKGRFTISRDNSKNTLYLQMNSLRAEDTAVYYCAREGIDFWSGLNWFDPWGQGTLVTVSS VL: EIVLTQSPGTLSLSPGERATLSCRASQSITGSYLAWYQQKPGQAPRLLICGASSWATGIPDRFSGSGSGTDFTLTISRLEPEDFAVYYCQQYSSSPITFGQGTRLEIKR
0.232	anti-Ang-2 monoclonal antibody 5.103.1 (antibody, V domains shown, Fully human IgG kappa from XenoMouse hybridoma (strains XMG2 and XMG4); IgG purified from hybridoma supernatant; also called mAb 5.103.1) VH: QVQLVQSGAEVKKPGASVKVSCKASGYTFTGYYLYWVPQAPGQGLEWMGWISPNSGGTNYAQKFQGRVTMTRDTSISTAYMELSRLRSDDTAVYYCARDQVIAVAGPFDYWAQGTLVTVSS VL: not shown
0.364	anti-Ang-2 monoclonal antibody 5.101.1 (antibody, V domains shown, Fully human IgG kappa from XenoMouse hybridoma (strains XMG2 and XMG4); IgG purified from hybridoma supernatant; also called mAb 5.101.1) VH: not shown VL: EIVMTQSPATLSVSPGERATLSCRASQSLISNLAWYQQKPGQAPRLLIFGASTRATGIPARFSGSGSGTEFTLTISSLQSEDFAVYYCHQYNNWWTFGQGTKVEIKR

The next lines start with the binder.

Binder	Efficacy (ratio of bound Angiopoietin-2 with mAb (30 µg/ml) versus without mAb) [ratio]
anti-Ang-2 monoclonal antibody 5.86.1 (antibody, V domains shown, Fully human IgG kappa from XenoMouse hybridoma (strains XMG2 and XMG4); IgG purified from hybridoma supernatant; also called mAb 5.86.1) VH: QVQLVQSGAEVKKPGASVKVSCKASGYTFTGYHMYWVRQAPGQGLEWLGWINPNSGGTNYAQKFQGRVTMTRDTSISTAYMELSRLRSDDTAVYYCVRDQGIAAAGPFDYWCQGTLVTVSS VL: DIRMTQSPSSLSASVGDRVTITCRASQRISTYLNWYQQKPGKAPKFLIYAASSLQSGVPSRFSGSGSGTDFTLTISSLQPEDFATYYCQQSYTTPFTFGPGTKVDIKR	0.384
anti-Ang-2 monoclonal antibody 5.88.3 (antibody, V domains shown, Fully human IgG kappa from XenoMouse hybridoma (strains XMG2 and XMG4); IgG purified from hybridoma supernatant; also called mAb 5.88.3) VH: EVQMVESGGGLVQPGGSLRLSCAASGFTLRSYWMSWVRQAPGKGLEWVANIKEDGSEKYHVDSVKGRFTISRDNAENSLFLQMSSLRAEDTAVYYCARDMEASAGLFDYWGQGTLVTVSS VL: EIVMTQSPATLSVSPGERAILSCRASQSISSNLAWYQQKPGQAPRLLIYGASTRATGIPARFSGSGSGTEFTLTISSLQSEDFAVYYCQQYNYWWTFGQGTKVEIKR	0.403
anti-Ang-2 monoclonal antibody 3.3.2 (antibody, V domains shown, Fully human IgG kappa from XenoMouse hybridoma (strains XMG2 and XMG4); IgG purified from hybridoma supernatant; also called mAb 3.3.2) VH: EVQLVESGGGLVQPGGSLRLSCAVSGFTFSSYWMSWVRQAPGKGLEWVANIKQDGSEKYYVDSVKGRFTISRDNAKNSLYLQMNSLRAEDTAVYYCARDQGIAVAGPFDYWGQGTLVTVSS VL: EIVMTQSPATLSVSPGERATLSCRASQTVSSDLAWYQQKPGQAPRLLIYGASIRATGIPARFSGSGSGTEFTLTISSLQSEDFAVYSCQQYYNWWTFGQGTKVEIKR	0.388
anti-Ang-2 monoclonal antibody 3.31.2 (antibody, V domains shown, Fully human IgG kappa from XenoMouse hybridoma (strains XMG2 and XMG4); IgG purified from hybridoma supernatant; also called mAb 3.31.2) VH: EVQLVESGGGLVQPGGSLRLSCAASGFTFSSYWMSWVRQAPGKGLEWVANIKQDGSDKYYVDSVKGRFTISRDNAKNSLYLRMNSLRAEDTAVFYCARDMGSGWFDYWGQGTLVTVSS VL: EVVMTQSPATLSVSPGERATLSCRASQSVGSNLAWYQQKPGQAPRLLIYGASTRATGIPARFSGSGSGTEFTLTISSLQSEDFAVYCCQQYNHWWTFGQGTKVEIKR	0.375
anti-Ang-2 monoclonal antibody 5.28.1 (antibody, V domains shown, Fully human IgG kappa from XenoMouse hybridoma (strains XMG2 and XMG4); IgG purified from hybridoma supernatant; also called mAb 5.28.1) VH: EVQLVESGGIVVQPGGSLRLSCAASGFTFDDYTMHWVRQTPGKGLEWVSLISWDGGSTYYADSVKGRFTISRDNSKNSLYLQMNSLRTEDTALYYCAKDIDIAVAGTGFDHWGQGTLVTVSS VL: EIVMTQSPATLSVSPGERATLSCRASQSVTSNLAWYQQKPGQAPRLLIYGALIRATGIPARFSGSGSGTEFTLTISSLQSEDFAVYYCQQYNNWPFTFGPGTKVDIKR	0.389
